Test: label from the status in PepcDB records

Row | Sequence | protein production
1 | MVKGDITTAFIAEEYPDGFQGAVLDEPTLRRVAAAAAAMNRVAEIRRTRISGTMNNHERHVGVDWVVALQGESYHVSIAADREGSTVSFSDGSSLRVTSDWTPGQPLEHHHHHH | failed
2 | MTAPKVFVSHASEDKARFVVDFARRLRENGVDAWLDQWEMKPGDSLVDKIFEEGLREARAVVIVLSATSVRKPWVREELNASVVNRISRGTKLIPVVIDDCDVPEALRSTVLEHHHHHH | failed
3 | MTKISKAACIGGGVIGGGWIARFLLAGIDVDVFDPHPEAGRIVGEIIANAEKAYAMLTGAPLPPRGKLTFCETLAEAVADADWIQESVPERLDLKRGVLTEIDAAARPEALIGSSTSGLLPTDLQRNMTHPERLFVAHPYNPVYLLPLVEIVGGEKTSAGTIRAAIERLAPIGMKGVHIAKEIEAFVGDRLLEALWREALWLIHDDICTVETLDDVIRYSFGLRWAQMGLFQTYRIAGGEAGMRHFLAQFGPCLAWPWTKLTDVVDLDDALIEKIGRQSDEQAAGLSIRALERIRDENLVGILQALKGGDNGKGWGAGKLLKDFEQTLWARGGDAAASADPSKPLRLVETKVSPAWVDYNGHMTEHRYLQVFGDTSDALLRLIGVDLAYVEAGHSYYTVESHIRHLGEAKLGQAIHSACQILTADEKRLHVFHTLRDTATGAVIATAEQMLLHVDSKEGKAVAAPAAVLDRVKAIAAAHAELALPEGAGRHVGQRR | failed
4 | MFAMLHVIVDTNWLLLAFSALMFDLPRYTFSLLSWSLVGIFRNSRPGDRWVEAAVSVIIPTFNGGSGLAPTIASLRQQTLSPLEIIIVDDGSTDDTRAVANRARQDGLVDMVICHGTRCGRSAAINAAARFASGDLIFTIDADTVLERDAIARLAHAFNDPRVAGACGNIAIRNESASLWTGLQSVEYMMSISAGKSILDVVGAIACLSGACSMYRRDVFARQGGLDVGPGEDLEFSLRLRRLGYRVRFVPDAWAETDGPVAAVGLLRQRARWDRDALRIRSMMYGELSFFHPLERLPDTLQRLDFIVFDLIPTMSLPFYSMYIVILFGPAHAILFIGAIYFLLLWISLFNMALAFVLFSRSPSFFSLGAAFIFPFYQGIYMKCARFVSYSSEILFATSRRDDYVPPRVRRALFADEVGKVVS | failed
5 | MQINLSDLHLLRPLWLLLIIPGALLPWLWQRRHDLLARLRGTIAPHLLTHLLVTPQDSQRLRPVHLLSALLVLGALAAAGPTWEQDRPDFLHNRAPLIIALDLSPSMNASDLPPSRLEAAKHKLQQLVQQRRGARTGLIAYAGSAHLVLPASDDPALLDSFIQALGSDLIQRPGKDVLGVIRQAQRLLQAEHSPGSLLLISDGADTSQLAAIKQQLAGSPLQVLILAAGSSDGGIIRDASGQPLTDSDGRPQLGRFDSAALKQLAAASDAPLGSLTLNDDDLDWVQLHAQQHFTAASAPDRQLQWKDAGYWLCWPLLLLAFCCVRRGWSLNWLGALLLGLGLSLQAPTARANTLADAFFSADQQGRWAFEHGHYPAAAALFTDPYWKGIAAYKAADFDLALASFARLDSAAAYFYLGNIHVRRFKFDEAIAAYQQALKLQPRFAEASANLALAQALKKDTESAQQNAPEVKPDAIKFDKPAGKGQNKKVETQEAASDELWLQNLSTSPAAFLRQKFSLQDLDNTTPQVTP | failed
6 | MLTDSGGGGTSFEEDLDSVAPRSAPAGASEPPPPGGVGLGIRTVRLFGEAGPASGVGSSGGGGSGSGTGGGDAALDFKLAAAVLRTGGGGGASGSDEDEVSEVESFILDQEDLDNPVLKTTSEIFLSSTAEGADLRTVDPETQARLEALLEAAAFADPEVLRRLTSSVSCALDEAAAALTRMKAENSHNAGQVDTRSLAEACSDGDVNAVRKLLDEGRSVNEHTEEGESLLCLACSAGYYELAQVLLAMHANVEDRGNKGDITPLMAASSGGYLDIVKLLLLHDADVNSQSATGNTALTYACAGGFVDIVKVLLNEGANIEDHNENGHTPLMEAASAGHVEVARVLLDHGAGINTHSNEFKESALTLACYKGHLDMVRFLLEAGADQEHKTDEMHTALMEACMDGHVEVARLLLDSGAQVNMPADSFESPLTLAACGGHVELAALLIERGANLEEVNDEGYTPLMEAAREGHEEMVALLLAQGANINAQTEETQETALTLACCGGFSEVADFLIKAGADIELGCSTPLMEASQEGHLELVKYLLASGANVHATTATGDTALTYACENGHTDVADVLLQAGADLDKQEDMKTILEGIDPAKHQVRVAFDACKLLRKE | failed
7 | MKSLYRSRMANHSKHGRPFTLSLPNRSQCVKIVATFAAVGLLATGGIISRSFYTSSTQAEPTTRVTAYSATDAEASRGNAREALGGDTAYVTVKINGKSRVVPGTNFTNVKSVLEAGNITLEPEDTVSPSLTTKVDEKTVITVSRAGASVEVSDSSIAFNVVKKETSSLPKGQEKVETEGEEGVMESTNLVTRSGDTVISSNMISSYVKKAPVDKVVLVGTGSTSTSSSSSSSSSTASVGTTVPAGEMQQWAHDYLISNGYTEADFTATVYIISHESGWSVSATNPSSGAYGLPQALPGSKMVSAGADWATNYQTQLKWFWGYCASRYGSIQGAYSYWLAHKCY | failed
8 | MLIKLTGGTVYDPANGIDGQVRNLFIRDGRIVHSLNGATPDQEYDLRGKVVMAGAIDMHTHIGGGKVT | failed
9 | MAFESAGAGELFLLGRLLFGGVLAFMGLNHFQNAGQMAPYAEAKGLPAPVASVYGSGGLLLVSGVLVILGAYPVIAAGALATFLVASAVMMHNFWAVPDDQMQDEMTQFLKNIALAGGALSLLAVAGTSWPYTVGLSLF | failed
10 | MPEKPTEDARFYGRRKGKPLRATRQRLLDTMLPALTLPLAGLGEGERLDPRGLFPRPVDQLWLEIGFGGGEHLVAQAAAHPEVGLIGSEVFAYGVGKALSQIDETGVDNIRLWPEDVRQVLPALPDGCLQRLFVLFPDPWPKRRHARRRMIQPARLDDFARLLADGGELRVASDDMGYVRWTLMHVTAHPAFRWTAQGPTDWRERPADWVETRYEAKALQAGRKPAYLIFRRRPRAADPGTLAEAPAGEGADNNP | failed
11 | ELVVKRGEIFGVVGPTGSGKSNLISDIEQLAQGDTPSNRKILVNGNVPDTEMRRDPRKRRIAQLSQNMNFLADMTVEEFLIMHAKSRGMNSEGIVDKVIKLANNLTGEPIEKDYNLTILSGGQSRSLMVADVAVISDSPIVLIDEIENAGIKKHEALELLAGCGKIVMVITHDPVLALMTTRRVVMRNGGMNEIIETTE | failed
12 | MVVIDPTLLGILACPQDKGPLLLVGDELLYNPRLRRAYPIENGIPVLLIDEARDVGADEHETLLARAAGEA | not failed
13 | MTGTRIAIGICTFRRPGIAATLASLGALRWPEGMSGLVIVADNDETPSARETVHAAAKGLPLPVCYLHAPARNISVARNAILEAAGARGLERLAFLDDDEMVEPGWIEALTEALARTGAEAVLGPVRAEHGAEAPAWMRESAIHDTRPTFLPDGSIKSGYSCNVLMDLTAPALEGLRFDPERGRSGGEDTAFFEAMLRRGGRLGFAPDALVRETVPADRARLGWLLRRRFRMGQTHASLIAGPGRAQRAKQALVALSKVAACSGMALAAVHDPLRRNNALLRGALHVGTLSALFGARPITIYGGTGPAPSTFDSKTDSYLVSRSRT | failed
14 | MAISVFDLFKIGIGPSSSHTVGPMRAAALFTAALRQRQALSAVRRLEVRLYGSLSATGVGHGTDRAVIMGLMGEWPDRIDPTQIAPRMAALLDSGLLQLDGRVAVPFDWVRDMRLLDENLPYHPNAMTLVAYGEQGELHQETYYSVGGGFVVDAAQAASGQLDQDHTVLPYDFSSAEELLLLCKRHNLRVSELMLANERIWRSETDIREGLRRIWQAMRDCVDNGLRNEGILPGGLNVQRRAARLHRNLQEIGKPNVIGSTLSAMEWVNLFALAVNEENAAGGRMVTAPTNGAAGIIPAVLHYYMKFNPDAQDRDVVDYLLAAAAVGILCKKNASISGAEVGCQGEVGSACAMAAAGLAEVLGATPAQVENAAEIGLEHNLGLTCDPVGGLVQVPCIERNAIAAVKAINAAQMALRGDGQHFISLDKVIRTMRDTGADMHDKYKETSRGGLAVNAIE | failed
15 | MTGKEEISSKYDDYSLKEVPKDSRYGFFNVFLVFSSVYGAIAVIWAGGALGYGLTFSQAIIAVLSGTVVLGILGSLTAAVGAYSGLSTYVMWRHPLGRWGGKIAGLLLITITTGIGWYAVETWLFGIVMSEIFPNNPFFSVGVAAIWGGILMTIMTYVGYRMLSFLSYFTIPFHIWLIAIGIAIVLALKGGFHTVMAAVPTSHMSLLDGISATIGLYSAGTIISPDISRFAKSAKDAGYAWFAHIIFLYPFLILGGVAIVLATGSYLITNAMLELGMGVGVLLIIVFGQFIINTDNLYSGSLSLVNLIPMRREIASVINGVIGTAIAAYVGFSAGSSITPFENFISLLGDFLPAMGGIVLADFYIVKKYVNKIQDPHKRYEFVPNNKYYNINIAGILALALGSIIGYFVNAGIPAINSLVTGFLSYIIIYYIIKAMGKSPEILPFNYEGGILR | failed
16 | MVGSSETETKEHREAEERSSRESATATGKVSGKENELRPTYVYLLMMPENHNVDVQQTLQEQRKRNIKKARIEARLKLDQIRPTVVLENSRATKMMIEWGFTDFRKLQGSNLGNKKWICWVRKHCC | not failed
17 | MSVQKAVKSSHYEAESNMEQDIVRKAWVFKPSGLNFIWGGDSRYWVIPNEDRTPAELKKVSWLEVTGSYDKIEPGKTYRIGFKISFTADATGWDQAPVFMSAKIGKKGRTIWKRIKSVNNNFDKLKGGTGPVNIPDETDGRFEIFVSPKVAINQDTKLQFGLYEVWTGKWKTGLLIYEAFVEEV | failed
18 | MTKACEANKSFLQSAVDKKEYSRTLLVDDGSDEGARSAGAFRPTPHRKGHGGRSPRRDQSPRRDSPQTASRTRLSSELIADLLQKKRERPTRSSSFPKRDKTIARTDRSPRSSPLPRSMGPPPPVIASPSSRSWGERPVGVQILTRRV | failed
19 | MVTAGKTLGKRMSTMRHRSCFSLFAGLALVFCLAVGTAAAGPVQVDIYGPGQGSLNLAMAAPLGPTPGTPVSGMGVKLNGFINENLSFLPFLRLVDQRAILGGTVMQGYKSPDIDLKRFQLAGADLVVTAGWPQGDASGSFVELRVYEALSGKLVFGKAYSHVEDGLLPNVADRFCSDLMKALTGRGEFFKSTLAFVKHDGKNKRDVWLVKPVGRDLRKITNLPGEALSPSWSPDGRFVVFSHFDDRSHALGVWDRLTRQVQRIRFPGNTVIGPCFLPDNKVAVSLSSGRNPDIFLLNHLFKKERELEANPSINVSPSFDATGTKMAFTSSRMGGPQVFMKDMTTGQVTRISKTGSYNTEPSISPDGTLVAFTKMTDTGHRIFVYDMVTQSERQVSFGPGRDEQPSFAPDSYFLAFTSNRNGAQQIFLVTRHGGDPKRVPTGPGDASFARWGMIPE | failed
20 | MFTFGFTNPEGTPDFSTPGLICIAILYIVGIYINFVFTIRRLHDRNNTGWLSLLMLVPVVNIGLAIYLFCAKGTEGPNDYGPKRPTPSWERVLGWIYIALIPLALIFGVIAVIMAPTYEGYVEKSESIVIGSPSQSE | failed
21 | MFPYKIVDDVVILMPNKELNIENAHLFKKWVFDEFLNKGYNKIFLVLSDVESIDSFSLGVIVNILKSISSSGGFFALVSPNEKVERVLSLTNLDRIVKIYDTISEAMEEVRRK | not failed
22 | MIWQLIDKHRQSFGVEPLCRVLQVSPSAYRRHAARLRDRSRRSARAIRDEELAVQIHRVWQENYEVYGARKVWRQMHREHQVVARCTVERLMREMGLCGVTRGKTVKTTQPDPDNANPRDLVKRQFTAERPNQLWVADFTFVSTWQGFAYVAFIVDVYSRFIVGWRVSRHMRTEFVLDALEQALHTRRPEPHRLVHHSDRGSQYLSIRYSERLGEAGIEPSVGNTGDSYDNALAETINGLYKTELIHKRGPWKSVDSLEWETLKWVTWFNHQRLLEPIGNRPPAEFEALYEQSQATISVAA | failed
23 | MIATLRSYLSADKRGLVGPAFLFLSLLASISDPFGGYGMTFLRRFLFWVLVLGVAGGIAFLSHRMVERHLSGAPLLGKDLLIVLLVTLSFTPSLWVLIFLFAAPSTGTAPDMWSMARYGTIFASGLIVLRRGVFGQSVPEEESLQPRIYKRLPEGFSEQILRLTVRDHSVDVVTDKGVHTIRSRFGDAIDEMVPISGHCTHRSHWVTDTAIESVERSGGKIHLRLSNGDLIPVSRKYRPALEEAGIV | failed
